Test: yeast display, Sf9 membrane polyspecificity reagent, FACS + sequencing; frameworks hold sequencing errors
Procedure, shortened: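 After 36–48 hours of galactose induction, yeast (Saccharomyces cerevisiae BJ5465) displaying a synthetic nanobody library were stained at 4 °C for 1 hour with 10% biotinylated, detergent-solubilized Sf9 membrane reagent. Streptavidin microbeads enriched the stained cells before FACS sorting into low and high (top ~1%) gates on anti-HA and streptavidin fluorescence. Each clone's polyreactivity label reflects its gate of origin.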

Row | Sequence | polyreactivity (PSR sort gate)
1 | QVQIVESGGGLVQAGGSLRISCAASGRIFRTYAMGWYRQAPGKERELVAAISSRGGSTSYADSVKGRFTISRDNEKNTVYLQLNSLKPEDTAVYYCARVGRNPVKYDYWGQGTQVTVSS | high polyreactivity
2 | QVQLVESGGGLVEAGGSLRLSCAASGLTIRWYAMGWYRQAPGKESEVVATISSGGSTNYADSVKGRFTISRDNAKNTVYFQMNSLTPEDTAVYYCNAYFRGYYHATIGMDYWGQGTQVTVSS | high polyreactivity
3 | QVQLVESGGGLVQAGGSLRLSCAASGRTFSYYAMGWYRQAPGKERELVAAITSSGTGTYYADSVKGRFTISRDNAKNTVYLQMNSLKPEDTAVYYCAVLTTSKSRVKLYYWGQGTQVTVSS | high polyreactivity
4 | QVQLQESGGGLEPAGGSLRLSCAASGTISVHASMGWYRQAPGKERELVAGITDGANTYYADSVKGRFTISRDNSKNTVYLQMNSLKPEDTAVYYCAAYYGTAFHFTYWCQGTQVTVSS | low polyreactivity
5 | QVQLVESGGGLVQAGGSLRLICAASGSTFARYAMGWYRQAPGKERELVAVIRSGGSTNYADSVKGRFTISRDNAKNTVYLQMNSMKTEDTAGAADQWTIHRWATYGYWGQGTQVTVSS | low polyreactivity
6 | QVQLVESGGGLVQAGGSLRLSCAASGSIFANNVMGWYRQAPGKEREFVAAISWSGGRTYYADSVTGRFTISRDNAKNTVYLQMNSLKPEDTAVYYCARRPRAWGQGTQVTVSS | high polyreactivity
7 | QVQLVESGGGLVQAGGSLRLSCAASGSTFFVYTMGWYRQAPGKERELVAAISGSGGSTSYADSVKGRFTISRDNAKNTVYLQMNSLKPEDTAVYYCAARRHVYLRGSTFEFNYWGQGTQVTVSS | high polyreactivity
8 | QVQLVESGGGLVQAGGRHRLSCAPSASIFSVNAMGWYRQAPGKERELVAAISWRGASTYYADSVKGRFTISRDNPKNTVYLQMNSLKPEDTAVYYCAAKGTGGDQYYAFDYWGQGTQVTVSS | low polyreactivity
9 | QVQLVESGGGLVQAGGSLRLSCAASGSTLYSYAMGWYRQAPGKERELVAAIRRDSGRTYYADSVKGRFTISRDNEKNTVYLQMNSLKPEDTAVYYCAAAYRLGYHKYYYWGQGTQVTVSS | high polyreactivity
10 | QVQLVESGGGLVQAGGSLRLSCAASGLTFVYNDMGWYRQAPGKERELVAGITSGGSTSYADSVKGRFTISRDNAKNTVYLQMNSLKPEDTAVYYCAAGVYALRRDYWGQGTQVTVSS | low polyreactivity
11 | QVQHVESGGGLVQAGGSLRLSCAASGRTFYRNAMGWSRQAPGKERELVARINDGAGTYYADSVKGRFTISRDNAKNTVYLQMNSLKPEDTAVYYCAADYGSKLDYGYWGQGTQVTVSS | low polyreactivity
12 | QVQLVESGGGLVQAGGSLRLSCAASVRIFPTNAMGWYRQAPGKEREFVAAITWLGGSTYYADSVKGRFTISRDNAKNTVYLQMNRLKPEDTAVYYCAATGHIVFFRAYDYGYWGQGTQVTVSS | low polyreactivity
13 | QVQLVESGAALVQAGGSLRLSCAASASTYVSYAMGWSRQAPGKEREFVAAITWRGDSTYYADSVKGRFTISRDNAKNTVYFQMNSLKPEDTAVDYCAADGRSWRYYSPYYYWGQGTQVTVSS | low polyreactivity
14 | QVQLVESGGGLVKAGGSLRLSCAASGSTFAKYAMGWYRQAPGKERELDASIRLSGGSTYYADSVKGRFTISRDNAKNNVYLQMNSLKPEDTAVYYCNKQFATFYYGFDYYYWGQGTQVTVSS | low polyreactivity
15 | QVQLVESGGGLVHAGGSLRLSCAAAGSTFYYYAMGWYRQAPGKERELVARISDGDSTNYADSVKGRFTISRDNAKNTVYLQMNSLKPEDTAVYYCAAQHWYLGYGYWGQGTQVTVSS | low polyreactivity
16 | QVQLVESGGGLVQAGGSLRLSCAASGSTFFKYAMGWYRQAPGKERELVAGITSDGSTNYADSVKGRFTISRDNAKNTVYLQMNSLKPEDTAVYYCAADGSKWGVGTYDYWGQGTQVTVSS | low polyreactivity
17 | QVQLVESGGGLVQAGGSLRLSCAASGSTFSDNDMGWYRQAPGKERELVATIDDDGSTYYADSVKGRFTISRDNAKNTVYLQMNSLKPEDTAVYYCAAEWYGGYPFGYWGQGTQVTVSS | low polyreactivity
18 | QVQLVESGGGLVQAGGSLRLSCAASGSTFITNTMGWYRQAPGKERELVAAISKSGGSTYYADSVKGRFTISRDNAKNTVYLKMNSLKAEDTAVYYCAADIYVRDRGVKYDYWRQGTQVTVSS | low polyreactivity
19 | QVQLVESGGGLVQAGGSLRLSCAASGFTISPYAMGWYRQAPGKERELVAGITRNGGSTYYADSVKGRFTISRDNAKNTVYLQMNSLKPEDTAVYYCITKYAVEFDYWGQGTQVTVSS | low polyreactivity
20 | QVQLVESGGGLVQAGGSLRLSCAASGFTFGSYAMGWYRQAPGKERELVAAITYRGGSTYYADSVKGRFTISRDNAKNTVYLQMNSLKPEDTAVYYCAADSRRKGNYWGQGTQVTVSS | high polyreactivity
21 | QVQLVESGGGLVQAGGSLRLSCAASGFIFAKYVMGWYRQAPGKERELVAAISRSGGSTYYADSVKGRFTISRDNAKNTVYLQMNSLKPDDTAVYYFAADQTTTGGMDFWGQGTQVTVSS | high polyreactivity
22 | QVQLVESGGGLVQAGGSLRLSCAASGRTYGYAMGWYRQAPGKERELVARNTWRGGSTSYADSVKGRFTISRDNAKNTVYLQMNSLKPEDTAVYYCAATYGTGRRSKYGYWGQGTQVTVSS | high polyreactivity

Row | Sequence | polyreactivity (PSR sort gate)
23 | QVQLVESGGGLVQAGGSLRLICDASGSTFGYYAIGGYRQAPGKERELVAVINKSGGRTYYADSVKGRFTISRDNAKNTVYLQMNSLKPEDTAVYYCATRVTSTRHDYWGQGTQVTVSS | high polyreactivity
24 | QVQLVESGGGLVQAGGSLRLSCAASGFIFDTNAMGWSRQAPGKDRELVARISSSAGSTYYAVSVKGRFTISRDNAKNTVYLLMNSLKPEDTAVYYCNADTGLGSLDFDKRDYWGQGTQVTVSS | low polyreactivity
25 | QVQLVESGGGLVQAGGSILLSCAASGSIYGTNTMGWYRQAPGKEREFVAVITGSTTSTYYADSVKGLFTISRDNAKNTVYLQMNSLKPEDTAVYYCATDYWWDLFEYDYWGQGTQVTVSS | high polyreactivity
26 | QVQLVESGGGLVQAGGSLRLSCAASGSTFSGNAMGWYRQAPGKEREMVAAITSSRGSTYYADSVKGRFTISRDHAQNTVDLQLNSLKPEDTAVYYCNRYSGGRWYPEYYYWGQGTQVTVSS | high polyreactivity
27 | QGQLVESGGGLVQAGGSLRLSCAASGRIFKYNAMGWYRQAPGKEMELVAVITSGGSTYYADSVKGRFTISRDNAKNTVYLQMNSLKPEDTAVYYCAKKYYIVHKFDYWGQGTQVTVSS | low polyreactivity
28 | QVQLVESGGGLDQAGGSLRLSCAASGSTFWGYTMGWYRQAPGKERELVAAITSGGSTNYADSVKGRFTISRDNAKNTVYLQMYSLKPEDTAVYYCNAVYPGRRRYRKWYIYDYWGQGTQVTVSS | high polyreactivity
29 | QVQLVESGGGLVQAGGSLRLSCAASGRIFVRNGMGWYRQAPGKERELVAAISASGGNTYYADSVKGRFTISRDNAKNTVYLQMNSLKPEDTAVYYCATTRRVPGEYWGQGTQVTVSS | high polyreactivity
30 | QVQLVESGGGLVQAGGSLRLSCAASGITFTLYAMGWYRQSPGKERELVAAISRGGGTTYYADSVKGRFTISRDNAKNTVYLQMNSLKPEDTAVYYCATDWHSSGYWGQGTQVTVSS | low polyreactivity
31 | QVQLVESGGGLVQAGGSLRLICAASGRTFGYNAMGWYRQAPGKEREFVAAISWSGGRTYYADSVKGRFTISRDNAKNTVYLQMNSLKPEHSAVYYCAAGFGDGPGNGYYTRYSWDDDYWGQGTQVTVSS | low polyreactivity
32 | QVQLVESGGGLVQAGGSLRLSCAASGFTYFGYAMGWYRQAPGKERELVAAISTIDGDTYYADSVKGRFTISRDNAKNTVYLQMNSLKPEDTAVYYCAADDYIDGDDYWGQGTQVTVSS | low polyreactivity
33 | QFQLVESGGGLVQAGGSLRLSCAASGRTFRGYAMGWYRQATGTERELVAAITWRGGSTYYADSVKGRFTISRDNEKNTVYLQMNSLKPEDTAVYYCNTLVWSYLGGYYSRYDYWGQGTQVTVSS | high polyreactivity
34 | QVQLVESGGGLVQAGGSLRLSCAASGSIFAAYTMGWYRQAPGNERELVAAISVSTVSTYYADSVKGRFTISRDNAKNTVYLQMNSLKPEDTAVYYCNADATDSYPEKDEHESWGQGTQVTVSS | low polyreactivity
35 | QVQLVESGGGLVQAGGSLRLSCAASGGTFPYSAMGWYRQAPGKERELVAAISRSGARTYYADSVKGRFTISRDNAKNTVYLQMNSLKPEDTAVYYCATDNTYGYDYWGQGTQVTVSS | high polyreactivity
36 | QVQLVESGGGLVQAGGSLRLSCAASGSTFRPNAMGWYRQAPGTERELVAAITSGGSTYYADSVKGRFTISRDNAKNTVYLQMNRLKPEDTAVYYFNKDKFWSYPVQVNLDYWGQGTQVTVSS | low polyreactivity
37 | QVQLVESGGGLVQAGGSLRLSCAASGSIRGYAMGWYRQAPGKERELVAAISWRGGSTYYADSVKGRFTISRDNAKNTVYLQMNSLKPEDTAVYYCAAADGIIESDYWGQGTQVTVSS | low polyreactivity
38 | QVQLVESGGGLVQAGGSLRLSCAASGSTFVYYAMGWSRQAPGKERELVASIRTGGTTNYADSVKGRFTISRDNAKNTVYLQMNSLKPEDTAVYYCNKDTRPTDTTVSLYYWSAWRDYWGQGTQVTVSS | low polyreactivity
39 | QVQLVESGGGLVQAGGSLRLSCAASGLTFPYYVMGWYRQAPGKERELVAAIDDGGGSTYYADSVKGRFTISRDNAKNTVYLQMNSLKPEDTAVYYCAAQVDYLAHYGYWGQGTQVTVSS | low polyreactivity
40 | QVQLVESGGGLVQAGGSLRLSCAASGRIFKLNDMGWYRQAPGKERELVAAITRGTGSTYADSVKGRFTISRDNAMNTVYLQMNSLKPEDTAVYDCATRYSYRRLSFPRPDEMEYWGQGTQVTVSS | low polyreactivity
41 | QVQLVESGGGLVQAGGSLRLSCAASGRIFAAYAMGWYRQAPGKERELVAAITWDGDSTYYADSVKGRFTISRDNAKNTVYLQMNSLKPEDTAVYYCAAYWSTWYDWGQGTQVTVSS | high polyreactivity
42 | QVQLVESGGGLVQAGGSLRLSCAASGRTFTLYAMGWYRQAPGKERELVAAIRWSGSSTYYADSVKGRFTISRDNAKNTVYLQMNSLKPEDTAVYYCAADRAYRRFSQGAYSPWILKYGYWGQGTQVTVSS | high polyreactivity
43 | QVQLVESGGGLVQAGGSLRLSCAASGLTSVRNAMGWYRQAPGKERELVAGISWSGGRTYYADSVKGRFTISRDNAKNTVYLQMNSLKPEDTAVYYCNKVRAYYTQEGSWGQGTQVTVSS | high polyreactivity
